Assay results from patent US20130273052A1.

Columns and labels:
[1] = biological target: human complement component C5 protein (human); assay: cell-based or functional assay
[2] = biological target: human complement component C5 protein (human); assay: Biacore 3000 SPR, scFv immobilised on CM5 chip, C5 0.1875-24 nM as analyte, 25 C, 1:1 Langmuir model
[3] = biological target: R38Q scFv (variant of the anti-C5 single chain antibody pexelizumab); assay: Biacore SPR self-association, R38Q scFv immobilised on CM5 chip, R38Q scFv 0.6-75 µM as analyte; poor fit to the Langmuir model

Kd [2]: 0.000108 µM
koff [2]: 6.06e-05 s⁻¹
kon [2]: 559000 M⁻¹ s⁻¹
Kd [3]: 32 µM
koff [3]: 0.0107 s⁻¹
kon [3]: 334 M⁻¹ s⁻¹
Substance: R38Q scFv (variant of the anti-C5 single chain antibody pexelizumab)
inhibition of chicken erythrocyte hemolysis in about 10% normal human serum (absorbance at 415 nm), IC50 [1]: 2 µg/mL
